Laboratory results as given in patent US20250145711A1 (Janssen / Centocor, published 2025).

Experiments:
[1] = biological target: T1, human PSMA on prostate cancer cell lines (22RV1, C4-2B) (human, UniProt Q04609 1-750); experiment: flow cytometry on C4-2B cells, four-parameter fit
T1 construct: also called PSMA-expressing cell lines
Procedure: Molecule concentrations ranged from 500-0 nM over 12-points at 3-fold dilution. […] Values reported in the Table 69 were generated by fitting the data to a four-parameter function for ligand binding generating values for y-min, y-max, EC50, and Hill. EC90 were calculated using the equation EC90=[…]\hat{ }(1/Hill)*EC50.

[2] = biological target: T2, recombinant human PSMA (human, UniProt Q04609 44-750); experiment: SPR (Biacore 8K), antibody captured on anti-Fc, PSMA in solution
T2 construct: also called hu PSMA; prostate-specific membrane antigen
Procedure: The antibodies were captured on a goat anti-Fc antibody-modified C1 chip and titrated with 3-fold serial dilutions of PSMA antigen spanning concentrations of 1 nM to 100 nM human PSMA. The association and dissociation were monitored for 3 and 30 minutes, respectively, using a flow rate of 50 μL/min. Raw binding data was referenced by subtracting the analyte binding signals from blanks and analyzed using a 1:1 Langmuir binding model by the Biacore Insight evaluation software to obtain the kinetics which were used to calculate the binding affinity. The anti-PSMA were captured using an anti-human Fc antibody and the antigens were injected in solution.

T1 sequence (Q04609 whole entry): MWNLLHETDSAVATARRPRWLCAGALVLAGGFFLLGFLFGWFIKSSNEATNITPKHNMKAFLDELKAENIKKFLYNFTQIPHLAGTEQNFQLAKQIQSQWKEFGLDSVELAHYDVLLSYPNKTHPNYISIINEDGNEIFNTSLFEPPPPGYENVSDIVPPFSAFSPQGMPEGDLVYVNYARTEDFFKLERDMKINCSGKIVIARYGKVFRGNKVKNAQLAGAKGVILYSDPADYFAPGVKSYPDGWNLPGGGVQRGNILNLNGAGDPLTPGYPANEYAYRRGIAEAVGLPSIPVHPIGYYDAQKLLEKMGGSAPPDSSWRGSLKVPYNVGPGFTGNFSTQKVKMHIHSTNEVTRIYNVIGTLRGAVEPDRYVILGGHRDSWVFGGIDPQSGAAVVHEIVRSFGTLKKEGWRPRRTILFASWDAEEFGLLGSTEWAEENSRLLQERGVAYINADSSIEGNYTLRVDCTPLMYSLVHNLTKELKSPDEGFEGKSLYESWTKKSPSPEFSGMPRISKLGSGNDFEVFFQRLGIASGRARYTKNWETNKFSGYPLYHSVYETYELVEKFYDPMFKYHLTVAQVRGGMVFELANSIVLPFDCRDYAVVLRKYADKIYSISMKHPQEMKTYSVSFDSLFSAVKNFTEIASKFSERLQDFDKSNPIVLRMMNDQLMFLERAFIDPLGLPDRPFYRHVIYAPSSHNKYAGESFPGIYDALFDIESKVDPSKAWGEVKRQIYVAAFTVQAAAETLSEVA
T2 sequence (Q04609 44-750 limits assumed): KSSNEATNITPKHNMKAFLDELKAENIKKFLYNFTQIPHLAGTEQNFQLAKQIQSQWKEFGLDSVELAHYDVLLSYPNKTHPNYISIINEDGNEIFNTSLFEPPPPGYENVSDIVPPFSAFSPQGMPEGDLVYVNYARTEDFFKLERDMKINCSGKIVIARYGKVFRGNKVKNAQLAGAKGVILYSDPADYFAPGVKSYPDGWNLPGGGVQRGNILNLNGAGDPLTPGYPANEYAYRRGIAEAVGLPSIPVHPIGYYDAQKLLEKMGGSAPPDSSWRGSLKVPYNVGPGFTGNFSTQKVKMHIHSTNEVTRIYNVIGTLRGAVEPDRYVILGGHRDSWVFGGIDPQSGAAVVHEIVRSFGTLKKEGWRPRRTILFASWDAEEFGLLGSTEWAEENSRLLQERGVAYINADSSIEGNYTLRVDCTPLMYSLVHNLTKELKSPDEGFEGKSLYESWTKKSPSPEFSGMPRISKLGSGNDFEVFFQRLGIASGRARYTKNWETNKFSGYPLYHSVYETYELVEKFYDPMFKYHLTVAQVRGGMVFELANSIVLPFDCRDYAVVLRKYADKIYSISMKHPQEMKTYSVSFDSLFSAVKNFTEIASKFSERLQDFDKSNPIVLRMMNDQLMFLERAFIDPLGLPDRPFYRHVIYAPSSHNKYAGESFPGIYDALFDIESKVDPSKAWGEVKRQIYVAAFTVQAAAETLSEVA

B1: PSMB1052 (bispecific antibody)
heavy: not shown
light: not shown
chain: SYELTQPPSVSVAPGQTARITCGGNNIGSKSVHWYQQKPGQAPVLVVYDDSDRPSGIPERFSGSNSGNTATLTISRVEAGDEADYYCQVWDSSTDHVVFGGGTKLTVLGGSEGKSSGSGSESKSTGGSEVQLVESGGGVVQPGRSLRLSCAASGFTFSSYGMNWVRQAPGKGLEWVAVTSYDGSNKYYADSVKGRFTISRDISKNTLYLQMSSLRAEDTAVYYCARDPYSSSWNGAFDIWGPGTMVTVSSEPKSSDKTHTCPPCPAPEAAGGPSVFLFPPKPKDTLMISRTPEVTCVVVSVSHEDPEVKFNWYVDGVEVHNAKTKPREEQYNSTYRVVSVLTVLHQDWLNGKEYKCKVSNKALPAPIEKTISKAKGQPREPQVYVLPPSREEMTKNQVSLLCLVKGFYPSDIAVEWESNGQPENNYLTWPPVLDSDGSFFLYSKLTVDKSRWQQGNVFSCSVMHEALHNHYTQKSLSLSPG
notes: HC1 (ZWA): B23B62-Fab; LC2 is NA
In the case of B1, the EC50 [1] is reported as 13 nM, the EC90 [1] is reported as 100 nM and the Y-max [1] is reported as 1.5e+06. It also gave a Y-min [1] of 68000, a Kd [2] of 1.61 nM and a koff [2] of 0.000315 s⁻¹. The kon [2] was 196000 M⁻¹ s⁻¹.

B2: PSMB1068 (bispecific antibody, human IgG1, kappa, L234A L235A)
heavy: not shown
light: not shown
chain: QVQLQESGGDVVQPGRSLRLSCAASGFSFSGYGLHWVRQAPGRGLEWVTLISYDGSNKYYADSVKGRFTISRDNSKNTLYLQMNSLRAEDTAVYYCAKTTVSDPYYYGMDVWGQGTTVTVSSGGSEGKSSGSGSESKSTGGSSYELTQPPSVSVAPGQTARITCGGNNIGSKSVHWYQQKPGQAPVLVVYDDSDRPSGIPERFSGTNSGNTATLTISRAEAGDEADYYCQVWDSSSDHVVFGGGTKLTVLEPKSSDKTHTCPPCPAPEAAGGPSVFLFPPKPKDTLMISRTPEVTCVVVSVSHEDPEVKFNWYVDGVEVHNAKTKPREEQYNSTYRVVSVLTVLHQDWLNGKEYKCKVSNKALPAPIEKTISKAKGQPREPQVYVLPPSREEMTKNQVSLLCLVKGFYPSDIAVEWESNGQPENNYLTWPPVLDSDGSFFLYSKLTVDKSRWQQGNVFSCSVMHEALHNHYTQKSLSLSPG
notes: as for B1
Binder B2 has an EC50 [1] of 8 nM, an EC90 [1] of 247 nM and a Y-max [1] of 1.9e+06. The Y-min [1] was 48000, the Kd [2] was 1.11 nM and the koff [2] was 0.000168 s⁻¹. The kon [2] was 151000 M⁻¹ s⁻¹.

B3: PSMB1051 (bispecific antibody, human IgG1, kappa, L234A L235A)
heavy: not shown
light: not shown
chain: QSVLTQPPSASGTPGQGVTISCSGSSSNIGSNTVNWFQQLPGTAPKLLIYSDNQRPSGVPDRFSGSKSGTSASLAISGLQSEDEADYYCAAWDDSLNGYVFGTGTKVTVLGGSEGKSSGSGSESKSTGGSEVQLVESGGGVVQPGRSLRLSCAASGFTFITYGMHWVRQAPGKGLEWVAVVSFDESNKYYADSVKGRFTISRDNSKNTLYLQMNSLRAEDTAVYYCARALRDGNNWDYFNGMDVWGQGTTVTVSSEPKSSDKTHTCPPCPAPEAAGGPSVFLFPPKPKDTLMISRTPEVTCVVVSVSHEDPEVKFNWYVDGVEVHNAKTKPREEQYNSTYRVVSVLTVLHQDWLNGKEYKCKVSNKALPAPIEKTISKAKGQPREPQVYVLPPSREEMTKNQVSLLCLVKGFYPSDIAVEWESNGQPENNYLTWPPVLDSDGSFFLYSKLTVDKSRWQQGNVFSCSVMHEALHNHYTQKSLSLSPG
notes: as for B1
Work on B3 yielded an EC50 [1] of 10 nM, an EC90 [1] of 76 nM and a Y-max [1] of 1.5e+06. For the same binder, the Y-min [1] was 67000, the Kd [2] was 1.01 nM and the koff [2] was 7.75e-05 s⁻¹. The kon [2] was 77100 M⁻¹ s⁻¹.

B4: PSMB1069 (bispecific antibody, human IgG1, kappa, L234A L235A)
heavy: not shown
light: not shown
chain: QVQLVESGGGEVQPGRSLRLSCAASGFSFSGYGMHWVRQAPGKGLEWVAVMSYDGSNRFYVDSVRGRFSISRDNSKNTLYLQMNSLRPEDTAVYYCARDTVWGSHPDAFDIWGQGTVVTVSSGGSEGKSSGSGSESKSTGGSQSVLTQPPSVSVAPGQTARITCGGNNSGSKSVHWYQQKPGQAPVLVVYDDSDRPSGIPERFSGSNSGNTATLTISRVEAGDEADYYCQVWDSSSDHGVFGGGTKLTVLEPKSSDKTHTCPPCPAPEAAGGPSVFLFPPKPKDTLMISRTPEVTCVVVSVSHEDPEVKFNWYVDGVEVHNAKTKPREEQYNSTYRVVSVLTVLHQDWLNGKEYKCKVSNKALPAPIEKTISKAKGQPREPQVYVLPPSREEMTKNQVSLLCLVKGFYPSDIAVEWESNGQPENNYLTWPPVLDSDGSFFLYSKLTVDKSRWQQGNVFSCSVMHEALHNHYTQKSLSLSPG
notes: as for B1
With B4 the EC50 [1] was 44 nM, the EC90 [1] was 254 nM and the Y-max [1] was 3.3e+06. For the same binder, the Y-min [1] was 87000, the Kd [2] was 1.42 nM and the koff [2] was 0.000197 s⁻¹. It also gave a kon [2] of 139000 M⁻¹ s⁻¹.

B5: PSMB1047 (bispecific antibody, human IgG1, kappa, L234A L235A)
heavy: not shown
light: not shown
chain: QSVLTQPPSVSVAPGQTARITCGGNNSGSKSVHWYQQKPGQAPVLVVYDDSDRPSGIPERFSGSNSGNTATLTISRVEAGDEADYYCQVWDSSSDHGVFGGGTKLTVLGGSEGKSSGSGSESKSTGGSQVQLVESGGGEVQPGRSLRLSCAASGFSFSGYGMHWVRQAPGKGLEWVAVMSYDGSNRFYVDSVRGRFSISRDNSKNTLYLQMNSLRPEDTAVYYCARDTVWGSHPDAFDIWGQGTVVTVSSEPKSSDKTHTCPPCPAPEAAGGPSVFLFPPKPKDTLMISRTPEVTCVVVSVSHEDPEVKFNWYVDGVEVHNAKTKPREEQYNSTYRVVSVLTVLHQDWLNGKEYKCKVSNKALPAPIEKTISKAKGQPREPQVYVLPPSREEMTKNQVSLLCLVKGFYPSDIAVEWESNGQPENNYLTWPPVLDSDGSFFLYSKLTVDKSRWQQGNVFSCSVMHEALHNHYTQKSLSLSPG
notes: as for B1
For B5, the EC50 [1] was 22 nM, the EC90 [1] was 71 nM and the Y-max [1] was 1.6e+06. The Y-min [1] was 79000, the Kd [2] was 2.52 nM and the koff [2] was 0.00175 s⁻¹. It also gave a kon [2] of 694000 M⁻¹ s⁻¹.

B6: PSMB1060 (bispecific antibody, human IgG1, kappa, L234A L235A)
heavy: not shown
light: not shown
chain: EIVLTQSPGTLSVSPGERATLSCRASQSVRSNLAWYQQKPGQAPRLLIYGASTRATGIPARFSGSGSGTEFTLTISSLQSEDFAVYYCHQYNDWPPYTFGQGTKLEIKGGSEGKSSGSGSESKSTGGSQVQLQESGGGVVQPGRSLRLSCAASGFTFSTYGMHWVRQAPGKGLEWVAFISYDGSNKYYADSVKGRFTISRDNSKHTLYLQMNSLRAEDTAVYYCAGRDNLRFLEWFMDVWGQGTTVTVSSEPKSSDKTHTCPPCPAPEAAGGPSVFLFPPKPKDTLMISRTPEVTCVVVSVSHEDPEVKFNWYVDGVEVHNAKTKPREEQYNSTYRVVSVLTVLHQDWLNGKEYKCKVSNKALPAPIEKTISKAKGQPREPQVYVLPPSREEMTKNQVSLLCLVKGFYPSDIAVEWESNGQPENNYLTWPPVLDSDGSFFLYSKLTVDKSRWQQGNVFSCSVMHEALHNHYTQKSLSLSPG
notes: as for B1
With B6 the EC50 [1] was 11 nM, the EC90 [1] was 59 nM and the Y-max [1] was 1.6e+06. The Y-min [1] was 86000, the Kd [2] was 1.02 nM and the koff [2] was 0.000119 s⁻¹. It also gave a kon [2] of 117000 M⁻¹ s⁻¹.

B7: PSMB1075 (bispecific antibody, human IgG1, kappa, L234A L235A)
heavy: not shown
light: not shown
chain: EVQLVESGGGVVQPGRSLRLSCAASGFSFSGYGMHWVRQAPGKGLEWVAVISYDGSNKYYADSVKGRFTISRDNSKNTLYLQMNSLRVEDTAVYYCARDRIWGSRGYYYGMDVWGQGTTVTVSSGGSEGKSSGSGSESKSTGGSQSALTQPASVSGSPGQSITISCTGASSDVGGYNYVSWYQQHPGKAPKLMIYEVSNRPSGVSNRFSGSKSGNTASLTISGLQAEDEADYYCSSYTITSTLVFGGGTKLTVLEPKSSDKTHTCPPCPAPEAAGGPSVFLFPPKPKDTLMISRTPEVTCVVVSVSHEDPEVKFNWYVDGVEVHNAKTKPREEQYNSTYRVVSVLTVLHQDWLNGKEYKCKVSNKALPAPIEKTISKAKGQPREPQVYVLPPSREEMTKNQVSLLCLVKGFYPSDIAVEWESNGQPENNYLTWPPVLDSDGSFFLYSKLTVDKSRWQQGNVFSCSVMHEALHNHYTQKSLSLSPG
notes: as for B1
With B7 the EC50 [1] was 30 nM, the EC90 [1] was 156 nM and the Y-max [1] was 1.3e+06. For the same binder, the Y-min [1] was 66000, the Kd [2] was 0.936 nM and the koff [2] was 0.000492 s⁻¹. It also gave a kon [2] of 526000 M⁻¹ s⁻¹.
